In the supplement of paper PMC12338614:
± gives the uncertainty stated by the source.

B1: library; numbered along this chain (parent)
chain: MEVVDPQQLGMFTEGELMSVGMDTFIHRIDSTEVIYQPRRKRAKLIGKYLMGDLLGEGSYGKVKEVLDSETLCRRAVKILKKKKLRRIPNGEANVKKEIQLLRRLRHKNVIQLVDVLYNEEKQKMYMVMEYCVCGMQEMLDSVPEKRFPVCQAHGYFCQLIDGLEYLHSQGIVHKDIKPGNLLLTTGGTLKISDLGVAEALHPFAADDTCRTSQGSPAFQPPEIANGLDTFSGFKVDIWSAGVTLYNITTGLYPFEGDNIYKLFENIGKGSYAIPGDCGPPLSDLLKGMLEYEPAKRFSIRQIRQHSWFRKKHPPAEAPVPIPPSPDTKDRWRSMTVVPYLEDLHGADEDEDLFDIEDDIIYTQDFTVPGQVPEEEASHNGQRRGLPKAVCMNGTEAAQLSTKSRAEGRAPNPARKACSASSKIRRLSACKQQ

Variants of: B1
Experiment: STK11 functional score (HeLa growth suppression), rescaled enrichment; synonymous median = 1, nonsense median = 0 (normalised score)
Conditions: with HeLa; variant type: missense
Procedure: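 Deep mutational scan (TileSeq/POPCode codon randomisation) of full-length codon-optimised STK11 cDNA integrated at a Bxb1 landing pad (AAVS1) in HeLa cells. Restoring functional STK11 suppresses HeLa proliferation. Variant frequencies were measured by NGS before and after about two weeks of growth. The error-corrected enrichment log-ratio was rescaled so that synonymous median = 1 and nonsense median = 0, scores above 1 were compressed, and codon-level and three biological replicate scores were combined; error is the bootstrapped standard error. Scale: synonymous median = 1, nonsense median = 0; below 0.5 = damaging.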

STK11 functional score: each site, then its substitutions
L72: N 0.264 ± 0.095 | Q 1.26 ± 0.14 | Y 1.04 ± 0.11 | H 0.0684 ± 0.095 | A 0.81 ± 0.3 | D 1.51 ± 0.45 | V 1.16 ± 0.21 | W 1.08 ± 0.51 | S 0.585 ± 0.22 | K 1.08 ± 0.79 | G 1.44 ± 0.23 | T 1.44 ± 0.48 | M 0.649 ± 0.15 | I 1.19 ± 0.24 | R 0.386 ± 0.11
S59: Q 1.63 ± 0.19 | R 1.5 ± 0.31 | C 0.952 ± 0.27 | A 1.19 ± 0.2 | D 0.937 ± 0.59 | E 1.42 ± 0.18 | L 1.56 ± 0.32 | T 1.32 ± 0.64 | H 1.09 ± 0.58 | G 1.65 ± 0.34 | V 1.55 ± 0.22 | N 1.45 ± 0.2 | F 0.672 ± 0.24 | I 1.31 ± 0.42 | W 0.719 ± 0.1
V63: L 0.458 ± 0.099 | I 1.45 ± 0.27 | Q 0.451 ± 0.38 | C 1.4 ± 0.54 | M 0.802 ± 0.23 | W 0.213 ± 0.095 | D -0.044 ± 0.097 | N 1.14 ± 0.097 | G 0.711 ± 0.21 | E 0.189 ± 0.41 | S 1.27 ± 0.23 | R -0.0566 ± 0.15
S69: K 1.31 ± 0.084 | W 0.118 ± 0.084 | L 1.24 ± 0.16 | E 1.23 ± 0.091 | Q 0.0756 ± 0.11 | M 0.689 ± 0.1 | R 1.1 ± 0.44 | G 1.69 ± 0.28 | P 1.04 ± 0.15 | A 1.14 ± 0.16 | H 0.304 ± 0.095 | V 0.644 ± 0.16
G61: M 0.0916 ± 0.085 | C 1.13 ± 0.097 | E 0.195 ± 0.23 | P 0.916 ± 0.26 | S 0.916 ± 0.13 | W 0.248 ± 0.097 | R 0.216 ± 0.14 | V 0.688 ± 0.096 | L 0.588 ± 0.27 | Q 0.913 ± 0.41 | Y 0.11 ± 0.086 | H 1.41 ± 0.35 | A 1.35 ± 0.32
V77: W 0.824 ± 0.077 | I 1.4 ± 0.13 | Q 0.597 ± 0.56 | R 0.469 ± 0.17 | G 0.0665 ± 0.079 | L 1.04 ± 0.22 | T 1.57 ± 0.19 | D 0.0184 ± 0.081 | P 0.512 ± 0.16 | S 0.46 ± 0.12
C73: T 1.6 ± 0.45 | W 0.426 ± 0.11 | A 1.69 ± 0.36 | I 0.566 ± 0.1 | D 1.49 ± 0.27 | F 0.572 ± 0.11 | Y 0.412 ± 0.097 | R 1.21 ± 0.15 | P 0.227 ± 0.098 | V 1.55 ± 0.24 | M 1.7 ± 0.41 | G 1 ± 0.2 | E 1.7 ± 0.41 | S 1.38 ± 0.43 | L 1.19 ± 0.13
R74: C 1.11 ± 0.25 | P 1.27 ± 0.19 | H 1.6 ± 0.47 | L 1.42 ± 0.094 | K 1.11 ± 0.62 | I 1.15 ± 0.12 | F 0.896 ± 0.37 | S 0.519 ± 0.21 | T -0.214 ± 0.22 | V 0.653 ± 0.33 | A 0.0507 ± 0.14
L67: G 0.725 ± 0.17 | Y 0.0744 ± 0.31 | V 0.884 ± 0.11 | H 0.361 ± 0.41 | W 0.675 ± 0.08 | A 0.924 ± 0.77 | P 0.0421 ± 0.099 | D 0.672 ± 0.33 | R 0.719 ± 0.45 | T 0.53 ± 0.095
E70: I 1.54 ± 0.19 | Y 1.14 ± 0.29 | A 1.43 ± 0.43 | R 1.67 ± 0.32 | L 1.03 ± 0.32 | D 1.05 ± 0.45 | V 1.28 ± 0.39 | S 0.896 ± 0.15 | G 0.582 ± 0.42 | P -0.12 ± 0.11 | Q 0.703 ± 0.26 | C 1.39 ± 0.52
R75: L 0.841 ± 0.13 | T 0.85 ± 0.23 | A 1.68 ± 0.19 | F 1.08 ± 0.19 | C 1.55 ± 0.091 | D 1.68 ± 0.28 | W 0.21 ± 0.14 | Y 1.5 ± 0.23 | N -0.061 ± 0.19 | I 1.18 ± 0.099 | M 0.00187 ± 0.29 | G 1.56 ± 0.46 | K 1.51 ± 0.44 | V 1.27 ± 0.37 | S 0.619 ± 0.16
G56: L 0.359 ± 0.094 | V 0.273 ± 0.08 | Q -0.0947 ± 0.16 | I 0.188 ± 0.091 | T 0.231 ± 0.097 | S 0.788 ± 0.12 | M 1 ± 0.093 | P 0.136 ± 0.092 | Y -0.102 ± 0.094 | R 0.136 ± 0.092 | W -0.159 ± 0.14
K78: N 0.219 ± 0.18 | I -0.0791 ± 0.14 | C 0.21 ± 0.078 | T 0.086 ± 0.54 | V -0.0951 ± 0.078 | G 0.0293 ± 0.084 | P -0.226 ± 0.12 | F 0.0316 ± 0.078 | H -0.114 ± 0.081 | S -0.111 ± 0.1 | A -0.0486 ± 0.23 | W -0.148 ± 0.077 | Y -0.374 ± 0.076 | D -0.161 ± 0.078 | Q 1.1 ± 0.12 | L 0.107 ± 0.12
D68: R 1.07 ± 0.21 | S 1.29 ± 0.27 | N 1.31 ± 0.8 | W 0.944 ± 0.17 | P 1.08 ± 0.12 | V 0.366 ± 0.1 | A 0.846 ± 0.48 | Q 0.949 ± 0.48 | G 1.08 ± 0.45 | Y -0.0799 ± 0.081 | L 0.441 ± 0.14
A76: I 1.4 ± 0.15 | L -0.332 ± 0.077 | C 1.32 ± 0.13 | G 1.09 ± 0.1 | Y 0.13 ± 0.083 | V 1.06 ± 0.077 | R -0.417 ± 0.081 | F 0.0284 ± 0.091 | W -0.171 ± 0.28 | H 0.362 ± 0.17 | Q 0.447 ± 0.14 | M -0.216 ± 0.42 | S 1.12 ± 0.2
V66: R -0.0455 ± 0.097 | T 1.12 ± 0.32 | F 0.608 ± 0.089 | N 0.393 ± 0.24 | I 0.557 ± 1.1 | D 0.0679 ± 0.17 | E 0.0829 ± 0.36 | L 1.1 ± 0.11 | Y 1.12 ± 0.38 | W 0.62 ± 0.19 | K 1.4 ± 0.37 | G 0.814 ± 0.17 | S 0.975 ± 0.13 | P 0.219 ± 0.12 | C 1.46 ± 0.32 | H 1.37 ± 0.19 | A 1.4 ± 0.092 | Q 1.08 ± 0.41 | M -0.0689 ± 0.32
E65: D 1.34 ± 0.37 | Y 1.05 ± 0.095 | C 1.07 ± 0.12 | Q 1.18 ± 0.52 | R 0.846 ± 0.099 | W 1.36 ± 0.12 | F 1.22 ± 0.15 | G 0.154 ± 0.087 | H 1.36 ± 0.21 | M 0.457 ± 0.078 | I 0.756 ± 0.38 | V 0.734 ± 0.15 | L 0.5 ± 0.28 | P 0.657 ± 0.32 | N 1.06 ± 0.14 | S 1.55 ± 0.19
G58: A 0.935 ± 0.29 | I -0.159 ± 0.1 | C 0.374 ± 0.095 | V -0.308 ± 0.081 | L -0.188 ± 0.095 | E 1.04 ± 0.23 | R -0.318 ± 0.1 | S 0.988 ± 0.36 | M 0.219 ± 0.094 | P 0.174 ± 0.093 | N 0.559 ± 0.29 | F 0.0123 ± 0.09 | Y -0.201 ± 0.096 | W 0.24 ± 0.092
L80: A 1.21 ± 0.22 | E 1.41 ± 0.38 | H 0.878 ± 0.092 | N 0.951 ± 0.37 | G 0.429 ± 0.082 | S 0.479 ± 0.1 | M 0.45 ± 0.67 | R 0.408 ± 0.11 | V 0.484 ± 0.079 | I 0.964 ± 0.13 | Q 1.45 ± 0.09
Y60: R 1.51 ± 0.41 | N 0.674 ± 0.26 | M 1.64 ± 0.17 | W 1.58 ± 0.15 | C 0.482 ± 0.081 | S 1.48 ± 0.25 | I 1.23 ± 0.3 | L 0.748 ± 0.29 | V 0.694 ± 0.2
K64: Q 1.58 ± 0.26 | A 1.59 ± 0.31 | G 0.436 ± 0.29 | Y 1.39 ± 0.39 | N 0.93 ± 0.15 | L 1.54 ± 0.26 | T 1.08 ± 0.1 | W 1.39 ± 0.16 | P 0.931 ± 0.21 | S 1.53 ± 0.19 | V 1.38 ± 0.19 | C 0.813 ± 0.53 | R 1.4 ± 0.17
E57: T 1.69 ± 0.29 | W 0.873 ± 0.077 | S 1.17 ± 0.35 | V 0.968 ± 0.17 | H 1.53 ± 0.34 | Y 0.95 ± 0.39 | R 1.13 ± 0.17 | Q 1.06 ± 0.23 | M 1.26 ± 0.17 | I 1.15 ± 0.09 | K 1.12 ± 0.74 | A 1.15 ± 0.13 | L 0.946 ± 0.29 | D 0.893 ± 0.15 | F 0.821 ± 0.094 | P 1.62 ± 0.32 | G 1.08 ± 0.35
K62: D 1.61 ± 0.2 | N 1.6 ± 0.6 | S 1.39 ± 0.32 | G 1.23 ± 0.67 | Y 1.31 ± 0.49 | L 1.35 ± 0.21 | A 1.7 ± 0.31 | C 1.4 ± 0.35 | T 1.7 ± 0.36 | R 1.61 ± 0.36 | I 1.35 ± 0.52 | Q 1.56 ± 0.21 | V 1.61 ± 0.2 | W 1.38 ± 0.43
T71: N 0.961 ± 0.15 | E 1.37 ± 0.42 | P 0.376 ± 0.19 | W 1.13 ± 0.14 | I 1.11 ± 0.24 | C 1.33 ± 0.5 | F 1.17 ± 0.47 | D 1.46 ± 0.096 | A 1.48 ± 0.31 | M 0.604 ± 0.21 | Q 1.58 ± 0.14 | R 0.849 ± 0.16 | L 0.974 ± 0.12 | S 0.618 ± 0.24 | G 1.48 ± 0.19 | V 1.04 ± 0.34
I79: C 0.264 ± 0.28 | G 0.345 ± 0.22 | L 0.451 ± 0.14 | W -0.0803 ± 0.077 | E 0.0444 ± 0.2 | S 0.761 ± 0.099 | P 0.0986 ± 0.19 | M 0.465 ± 0.1 | H -0.113 ± 0.19 | F 0.321 ± 0.076 | R 0.967 ± 0.28 | Q 1.51 ± 0.18 | V 0.313 ± 0.085 | Y -0.0325 ± 0.073
